Assay results from patent US20250304677A1 (VIB VZW, published 2025).

Tests used:
[1] = target: T1, human folate receptor alpha expressed on cells (transfected HEK293T, HeLa, MCF7, MDA-MB-231) (human, UniProt P15328 25-234); assay: flow cytometry on HEK293T cells overexpressing human FOLR1, His tag detection, PE MFI, non-linear fit
T1 construct: HEK293T transiently transfected with human FOLR1; also called native human FRα; cell-expressed human FOLR1
Procedure: Data were normalized and technical replicates were plotted as mean±SD. Data were fitted by non-linear regression and the half-maximal effective concentration ^{∘}EC50) was calculated using GraphPad Prism 9 software. ^{∘}FIG. 1C and FIG. 1D) Binding affinity determination of anti-FOLR1 VHHs for native FOLR1. Mouse ^{∘}FIG. 1C) or human FOLR1 FIG. 1D) was overexpressed on HEK293T cells and binding of the anti-FOLR1 VHHs was assessed using flow cytometry. The mean fluorescence intensity ^{∘}MFI) of the phycoerythrin signal was plotted for each VHH concentration. Data were fitted by non-linear regression using GraphPad Prism 9 software. ^{∘}FIG. 1E) Determination of the competition of representative family members with folic acid ^{∘}FA) using ELISA. Mouse FOLR1 was coated on the plate and was pre-incubated with or without 100 μM FA before adding the VHHs. Data were fitted by non-linear regression using GraphPad Prism 9 software.

[2] = target: T2, mouse folate receptor alpha (mFRα), recombinant protein (mouse, UniProt P35846 25-232); assay: BLI, periplasmic extract, FRα on AR2G biosensors
T2 construct: Bought recombinant proteins (e.g. biotinylated, Acro Biosystems FO1-M82E9); also called mFOLR1; Ms FOLR1
Procedure: (§1) After panning of core76/77 on human and mouse folate receptor alpha ^{∘}FRα), […] were randomly selected from the second and third rounds and analyzed by ELISA on both human and mouse FRα for the presence of FRα-specific VHHs in their periplasmic extracts ^{∘}PE). This led to the identification of 98 hits. For these 98 hits, the off-rate ^{∘}koff) in the PE was determined by biolayer interferometry ^{∘}BLI) on both mouse and human FRα that was directly immobilized onto AR2G biosensors. The off-rates were calculated using a 1:1 binding model. […] Abbreviations: SE: standard error.

[3] = target: T3, human folate receptor alpha (hFRα), recombinant protein (human, UniProt P15328 25-233); assay: BLI, periplasmic extract, FRα on AR2G biosensors
T3 construct: Bought recombinant proteins (His-tagged, or biotinylated via Avi-tag, e.g. AcroBiosystems FO1-H82E2, F01-H52H1); also called hFOLR1; huFOLR1
Procedure: as §1

[4] = target: T2, mouse folate receptor alpha (mFRα), …; assay: BLI tandem binning on mouse FRα; competitor (1st association) 2HFO42
From the text: VHHs that share high sequence identity in the CDR3 region, a VHH family, are derived from the same B-cell lineage and diverged from each other due to somatic hypermutation or affinity maturation. Typically, VHHs from the same family recognize the same epitope on the target, but may differ in other characteristics ^{∘}De Genst et al 2006 PNAS 103:4586-4591; De Gents et al 2005 J Biol Chem 280:14114-14121). To study whether the VHHs from the different families bound different epitopes, epitope binning was performed using a tandem binding approach in BLI. One VHH from each family was allowed to bind to mouse FRα on the biosensor, followed by binding of the second VHH ^{∘}Table 4).
Competition between VHHs from different complementarity determining region ^{∘}CDR) 3 families was assessed in a tandem binding assay using biolayer interferometry ^{∘}BLI). Streptavidin biosensors were loaded with biotinylated mouse FRα ^{∘}Acro Biosystems, Cat.nr. FO1-M82E9), followed by binding of anti-FRα VHHs ^{∘}VHH in first association). The biosensors were then transferred to a solution containing a second VHH mixed 1:1 with the first VHH ^{∘}VHH in second association). Using the FortéBio Data Analysis Software the absolute additional binding signal for the second association on top of the first association was calculated. The data were normalized per VHH in first association using the following formula: ^{∘}signal-self)/^{∘}maximum-self) with self being the value of the VHH in first association in combination with the same VHH in second association.

human FRα Q141R = target: T4, human FRα Q141R (human, UniProt P15328 25-234); assay: flow cytometry on transiently transfected HEK293T cells, mouse anti-His then anti-mouse-PE (B575-A)
T4 construct: The entry is the mutant itself
From the text: (§2) FIGS. 2A-2C illustrates the epitope mapping of anti-FOLR1 VHHs on human FOLR1/2 chimeras. ^{∘}FIG. 2A) To narrow down the epitope of the anti-folate receptor alpha ^{∘}FOLR1) VHHs, chimeric constructs were generated by exchanging a sequence block in human FOLR1 ^{∘}hFOLR1) by the corresponding human folate receptor beta ^{∘}hFOLR2) sequence, since the VHHs are able to bind both hFOLR1 and mouse FOLR1 ^{∘}mFOLR1; SEQ ID No.97), but not hFOLR2. These regions are indicated by the green arrows. Chimera 1 SEQ ID No. 67) and 7 ^{∘}Ch7; SEQ ID No. 73) also contain an additional residue change at a separate location. […] HEK293T cells were transfected with hFOLR1, hFOLR2, one of the hFOLR1/2 chimeric constructs ^{∘}FIG. 2B) or single residue mutants ^{∘}FIG. 2C). Binding of VHHs 2HFO19, 2HFO42, 3MFR60, and a mouse anti-FOLR1 monoclonal antibody ^{∘}mAb) was detected using a mouse anti-His tag antibody for the VHHs followed by an anti-mouse-phycoerythrin antibody. All VHHs were tested at a concentration of 200 nM and untransfected cells were used as a negative control. The colors used for the VHHs represent the different CDR3 families; blue: family 1, green: family 3, grey: family 10.
(§3) To further narrow down which specific residues might play a role, single residues of human FRα in the chimera 4 region that are not conserved between FRα and FRβ were mutated to their human FRβ counterpart. While all VHHs retained binding to human FRα E140Q SEQ ID No. 77), R147H ^{∘}SEQ ID No. 79), and Y150H ^{∘}SEQ ID No. 80) ^{∘}data not shown), binding was completely abolished when the Q141R mutation ^{∘}SEQ ID No. 78) was introduced ^{∘}FIG. 2C). To verify the role of this residue in the binding of the VHHs, the R135 residue in human FRβ was replaced by glutamine ^{∘}SEQ ID No. 81) and binding of the VHHs was analyzed. […] In addition to having ^{∘}partially) overlapping epitopes, the VHHs thus all require residue Q141 for binding.

[5] = target: T5, human folate receptor beta (FRβ) (human, UniProt P14207 17-230, limits assumed); assay: as above
T5 construct: also called hFOLR2; human FOLR2
From the text: as §2, §3

T2 sequence (P35846 25-232 limits assumed): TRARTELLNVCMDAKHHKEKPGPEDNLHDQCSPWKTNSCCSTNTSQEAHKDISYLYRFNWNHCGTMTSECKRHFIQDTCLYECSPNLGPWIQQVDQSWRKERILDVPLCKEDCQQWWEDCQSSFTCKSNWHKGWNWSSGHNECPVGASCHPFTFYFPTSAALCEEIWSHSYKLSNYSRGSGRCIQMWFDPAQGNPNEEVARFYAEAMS
T5 sequence (P14207 17-230 limits assumed): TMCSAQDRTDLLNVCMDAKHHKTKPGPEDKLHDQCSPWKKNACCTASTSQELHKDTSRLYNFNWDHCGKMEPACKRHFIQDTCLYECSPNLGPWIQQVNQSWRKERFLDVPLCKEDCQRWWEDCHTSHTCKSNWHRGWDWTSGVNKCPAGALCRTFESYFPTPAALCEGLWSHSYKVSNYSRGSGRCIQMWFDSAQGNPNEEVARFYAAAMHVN
T3 sequence (P15328 25-233 limits assumed): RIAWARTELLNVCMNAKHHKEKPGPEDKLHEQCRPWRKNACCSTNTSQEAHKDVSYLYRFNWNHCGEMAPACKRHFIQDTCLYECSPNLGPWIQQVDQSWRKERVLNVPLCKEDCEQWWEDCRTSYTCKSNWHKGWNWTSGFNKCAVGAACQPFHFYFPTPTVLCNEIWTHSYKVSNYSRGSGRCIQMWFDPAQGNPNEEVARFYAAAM
T1 sequence (P15328 25-234 limits assumed): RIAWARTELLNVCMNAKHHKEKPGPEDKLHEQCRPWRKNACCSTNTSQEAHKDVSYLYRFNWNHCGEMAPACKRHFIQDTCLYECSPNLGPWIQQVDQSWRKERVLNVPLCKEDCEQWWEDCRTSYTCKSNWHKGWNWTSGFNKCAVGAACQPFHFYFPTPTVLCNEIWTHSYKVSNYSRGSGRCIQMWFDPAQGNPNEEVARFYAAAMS
T4 sequence (P15328 25-234 Q141R limits assumed): as the sequence (P15328 25-234 limits assumed) above, with Q117R counted along it

B1: VHH 2HFO42 (family 3) (VHH)
VHH: QVQLQESGGGLVQAGGSLRLSCAASGSGFSGMIMGWYRQVPGKQRELVATVTSHGTTNYADSVKGRFTISRDNAKNTVLLQMNSLKPEDTAVYYCNAHFPGIYWGKGTQVTVSS
notes: also called 2HF042; Nb42
EC50 [1]: 26.4 nM
koff [2]: 0.00881 s⁻¹
koff [3]: 0.0266 s⁻¹
normalized additional binding in 2nd association [4]: 0%
binding result (human FRα Q141R): no binding (tested: 200 nM)
binding result [5]: no binding (tested: 200 nM)

B2: VHH 2HFO19 (family 1) (VHH)
VHH: QVQLQESGGGLVQPGGSLRVSCAASGFPFSTVYMSWVRQAPGKGLEWVSGINNDGGVIDYADSVKGRFTISRDNAKNTLYLQLNSLKPEDTALYFCARGRSFVATLSSSLRGQGTQVTVSS
notes: also called Nb19
EC50 [1]: 4.5 nM
koff [2]: 0.00279 s⁻¹
koff [3]: 0.013 s⁻¹
normalized additional binding in 2nd association [4]: 12%
binding result (human FRα Q141R): no binding (tested: 200 nM)
binding result [5]: no binding (tested: 200 nM)

B3: VHH 3MFR60 (family 10) (VHH)
VHH: QVQLQESGGGLVQAGGSLRVSCAASGIIFSMNGMGWFRQAPGKQRELVASITSGGSTKYADSVKGRFTISRDNAKNTVYLQMNSLKPEDTAVYYCNIQFGSRWSTYWGQGTQVTVSS
EC50 [1]: 10.1 nM
koff [2]: 0.00287 s⁻¹
koff [3]: 0.0449 s⁻¹
normalized additional binding in 2nd association [4]: 34%
binding result (human FRα Q141R): no binding (tested: 200 nM)
binding result [5]: no binding (tested: 200 nM)
